Data from publication PMC5727262, “Molecular mechanism of K65 acetylation-induced attenuation of Ubc9 and the NDSM interaction” (Scientific Reports, 2017).

B1: GST-Elk1_200-261: GST fusion of the sumoylation motif region derived from Elk1, sumoylation substrate (protein)
chain: SPSPLEACLEAEEAGLPLQVILTPPEAPNLKSEELNVEPGLGRALPPEVKVEGPKEELEVAG
modifications: also: GST fusion partner not in chain
notes: GST fusion of the sumoylation motif region derived from Elk1, sumoylation substrate
B2: GST-CBP1000-1080: GST fusion of the sumoylation motif region derived from CBP, sumoylation substrate (protein)
chain: ETQAEDTEPDPGESKGEPRSEMMEEDLQGASQVKEETDIAEQKSEPMEVDEKKPEVKVEVKEEEESSSNGTASQSTSPSQP
modifications: left off: GST, end not stated, kept
notes: GST fusion of the sumoylation motif region derived from CBP, sumoylation substrate
B3: GST-RanGAP1_481-587: GST fusion of the sumoylation motif region derived from RanGAP1, sumoylation substrate (protein)
chain: KDEATVRMAVQDAVDALMQKAFNSSSFNSNTFLTRLLVHMGLLKSEDKVKAIANLYGPLMALNHMVQQDYFPKALAPLLLAFVTKPNSALESCSFARHSLLQTLYKV
modifications: left off: GST, end not stated, kept
notes: GST fusion of the sumoylation motif region derived from RanGAP1, sumoylation substrate

Experiments:
Ubc9 (WT) = target: T1, Ubc9 (WT) (Homo sapiens, UniProt P63279); assay: Multiple-turnover in vitro sumoylation kinetics with WT Ubc9; type: biochemical; conditions: Michaelis-Menten, SUMO-1 conjugation; for Km: 100 nM WT Ubc9, 10 μM SUMO-1, 150 nM E1, pH 7.5, SDS-PAGE/SYPRO-RUBY, triplicate; for kcat: 100 nM WT Ubc9, 10 μM SUMO-1, 150 nM E1, pH 7.5, triplicate
T1 construct: made in house; host or cells: E. coli (stated as BL21 (DE3) for the acetylated variant)
Method: (§1) Although the decreased Ubc9 binding to the NDSM substrates on K65 acetylation could explain the reduced levels of NDSM substrate sumoylation, we could not entirely exclude the possibility that K65 acetylation could also affect Ubc9 catalytic activity. To test this possibility, an enzyme kinetics study was performed using multiple-turnover in vitro sumoylation assays between WT or Ac-Ubc9K65 and GST fusion of SM derived from RanGAP1 (Fig. 3A and B), Elk1 (Fig. 3C and D), and CBP (Fig. 3E and F). […] In line with the ITC results, K65 acetylation increased the km values by 1.5–1.7 fold of the NDSM peptides, but not the RanGAP1 SM.
(§2) Figure 3 Effect of K65 acetylation on Ubc9 catalysis. (A) Summary of Michaelis–Menten kinetics applied to SUMO conjugation rates for GST-RanGAP1_481-587 (B and C), GST-Elk1_200-261 (D and E) and GST-CBP1000-1080 (F and G). Experiments performed in triplicate. TEXT PRINTED IN THE PICTURE: (A) RanGAP1: Km (μM): 24.8 ± 1.7 (Ubc9: WT); kcat (min^-1): 4.3 ± 0.1 (Ubc9: WT); Km (μM): 21.0 ± 4.4 (Ubc9: K65-Ac); kcat (min^-1): 4.1 ± 0.3 (Ubc9: K65-Ac) | (A) Elk1: Km (μM): 75.2 ± 5.9 (Ubc9: WT); kcat (min^-1): 3.7 ± 0.5 (Ubc9: WT); Km (μM): 110.7 ± 7.8 (Ubc9: K65-Ac); kcat (min^-1): 4.0 ± 0.2 (Ubc9: K65-Ac) | (A) CBP: Km (μM): 63.8 ± 7.9 (Ubc9: WT); kcat (min^-1): 3.8 ± 0.4 (Ubc9: WT); Km (μM): 111.0 ± 11.6 (Ubc9: K65-Ac); kcat (min^-1): 4.5 ± 0.4 (Ubc9: K65-Ac) | (A) Calpain2: Km (μM): N.D. (Ubc9: WT); kcat (min^-1): N.D. (Ubc9: WT); Km (μM): N.D. (Ubc9: K65-Ac); kcat (min^-1): N.D. (Ubc9: K65-Ac)
(§3) The kinetic analysis[27] was performed in a 40 μl reaction mixture containing 10 μM SUMO-1, 150 nM E1, 100 nM WT or Ac-Ubc9K65, and known quantities of sumoylation substrate dissolved in a buffer containing 20 mM HEPES (pH 7.5), 100 mM NaCl, 5 mM MgCl2, and 2 mM ATP. The samples were subject to SDS-PAGE and visualized by SYPRO-RUBY staining using the UVP Gel-Doc-It system to quantify the sumoylated and non-sumoylated protein bands. Data from triplicate experiments were plotted as a graph of reaction velocity against concentration of the substrate to obtain the Michaelis–Menten constant (km) and the turnover number (kcat).

Ac-Ubc9K65 = target: T2, Ac-Ubc9K65 (Homo sapiens, UniProt P63279); assay: Multiple-turnover in vitro sumoylation kinetics with Ac-Ubc9K65; type: biochemical; conditions: Michaelis-Menten, SUMO-1 conjugation; for Km: 100 nM Ac-Ubc9K65, 10 μM SUMO-1, 150 nM E1, pH 7.5, SDS-PAGE/SYPRO-RUBY, triplicate; for kcat: 100 nM Ac-Ubc9K65, 10 μM SUMO-1, 150 nM E1, pH 7.5, triplicate
T2 construct: made in house; host or cells: E. coli BL21 (DE3) with pAcKRS-3 and pCDF PylT-1-Ubc9 (amber codon at K65), fed acetyl-lysine
Method: as §1, §2, §3

T1 sequence (P63279 whole entry): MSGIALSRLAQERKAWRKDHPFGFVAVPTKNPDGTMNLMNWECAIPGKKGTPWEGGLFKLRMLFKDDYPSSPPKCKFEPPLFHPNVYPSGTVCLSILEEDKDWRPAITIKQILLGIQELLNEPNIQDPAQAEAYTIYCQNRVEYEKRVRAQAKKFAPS
T2 sequence (P63279 2-158): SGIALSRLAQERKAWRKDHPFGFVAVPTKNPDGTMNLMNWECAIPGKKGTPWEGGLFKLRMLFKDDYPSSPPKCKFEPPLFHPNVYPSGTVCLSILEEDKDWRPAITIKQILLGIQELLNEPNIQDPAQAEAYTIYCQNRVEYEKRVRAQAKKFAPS

Molecule	Km (Ubc9 (WT)) [µM]	kcat (Ubc9 (WT)) [s⁻¹]	Km (Ac-Ubc9K65) [µM]	kcat (Ac-Ubc9K65) [s⁻¹]
B1	75.2 ± 5.9	0.0617 ± 0.0083	111 ± 7.8	0.0667 ± 0.0033
B2	63.8 ± 7.9	0.0633 ± 0.0067	111 ± 11.6	0.075 ± 0.0067
B3	24.8 ± 1.7	0.0717 ± 0.0017	21 ± 4.4	0.0683 ± 0.005
